Substrate: Nc1nc2nc[nH]c2c(=O)[nH]1
Experiment: Initial rate studies of TcHGXPRT, GMP biosynthesis
Assay type: biochemical, Trypanosoma cruzi
Settings: other: variable substrate PRPP (1–78 μM) at fixed Gua levels; pH 8.3; 37.0 °C

B1: TcHGXPRT (Trypanosoma cruzi strain CL Brener) (protein)
chain: MISSQQAMVHVVSRNAEGVIVVDGKAYPMAEELVATESVIQRSIKAVAKQIADFYRPLSHRDTHGGGGVAPISDENPLIIISVLKGSYIFTADMVRYLGDYGLPHVVDFLRVASYRGTSSTNKMKLLAETQFKALRGKHVLILEDIVDSGKTLRYILDKVQREHQPATLKVCVLADKPGGRRVTMQPDFVCLTVPNKYVIGYGFEVNDRFRCFRHIFTLRPGEARRYPAHL
Km: 28 ± 3 µM | kcat: 0.44 ± 0.02 s⁻¹
